Measured values from patent publication US20230221313A1.

Target: HIV-1 BG505.W6M.Env.C2 pseudovirus (Env) (HIV-1)
Assay: cell-based or functional assay

Substance | Fold change GFP-/GFP+ (droplet neutralization, NGS reads), Round 1
VRC34 (antibody) | 1.78
anti-HIV antibody VRC01 | 1.08
